# Laboratory results published in the Human Domainome abundance scans (Beltran et al. 2025).
# ± gives the uncertainty stated by the source.
# B1: E3 ubiquitin-protein ligase NEDD4-like, residues 539 to 589; numbered along this chain, Q96PU5 (parent)
# chain: KTSLNPNDLGPLPPGWEERIHLDGRTFYIDHNSKITQWEDPRLQNPAITGP
# Variants of: B1
# Assay: abundance fitness (aPCA) (normalised: wild type 0, dead -1); higher = more abundant; growth selection in yeast, the domain comes from the species named
# Conditions: Homo sapiens
row,Variant,abundance fitness
1,I48L,-0.123 ± 0.47
2,I48M,-0.176 ± 0.21
3,I48G,0.025 ± 0.054
4,D40S,-0.492 ± 0.058
5,D40V,-0.706 ± 0.052
6,D40G,-0.731 ± 0.062
7,D40K,-0.585 ± 0.1
8,D40T,-0.919 ± 0.11
9,T36Q,-0.336 ± 0.077
10,T36H,0.032 ± 0.1
11,T36P,-0.608 ± 0.09
12,T36A,-0.341 ± 0.045
13,T36V,-0.263 ± 0.045
14,T36F,-0.261 ± 0.083
15,F27S,-0.092 ± 0.051
16,F27L,-0.039 ± 0.047
17,F27A,-0.112 ± 0.047
18,F27P,-0.357 ± 0.058
19,T26N,-0.187 ± 0.075
20,T26V,-0.077 ± 0.046
21,T26C,-0.065 ± 0.085
22,T26S,-0.113 ± 0.054
23,T26M,-0.125 ± 0.065
24,G24C,-0.917 ± 0.095

row,Variant,abundance fitness
1,G24S,-0.531 ± 0.052
2,G24I,-1.12 ± 0.24
3,G24P,-1.14 ± 0.12
4,G24M,-1.08 ± 0.18
5,G24Y,-0.76 ± 0.18
6,G24W,-1.07 ± 0.077
7,S3N,0.093 ± 0.065
8,S3H,-0.223 ± 0.047
9,S3L,-0.345 ± 0.061
10,S3M,-0.193 ± 0.084
11,P11N,-0.177 ± 0.098
12,P11R,-0.168 ± 0.045
13,P11L,-0.41 ± 0.063
14,P11M,-0.232 ± 0.057
15,P11A,0.022 ± 0.061
16,A47V,-0.042 ± 0.047
17,A47L,-0.083 ± 0.045
18,A47H,0.235 ± 0.12
19,A47M,-0.212 ± 0.072
20,Q37M,-0.231 ± 0.079
21,Q37D,-0.521 ± 0.089
22,Q37T,0.21 ± 0.067
23,Q37F,-0.358 ± 0.12
24,Q37Y,-0.33 ± 0.096

row,Variant,abundance fitness
1,Q37E,-0.742 ± 0.059
2,Q37S,-0.014 ± 0.049
3,Q37G,-0.723 ± 0.047
4,Y28T,-0.626 ± 0.075
5,Y28K,-0.332 ± 0.089
6,Y28C,-0.902 ± 0.13
7,Y28D,-0.399 ± 0.058
8,Y28G,-0.451 ± 0.043
9,Y28P,-0.242 ± 0.065
10,Y28N,-0.851 ± 0.067
11,G10H,-0.53 ± 0.12
12,G10C,-0.28 ± 0.079
13,G10W,-0.433 ± 0.048
14,G10S,-0.268 ± 0.059
15,G10K,-0.238 ± 0.078
16,G10I,-0.508 ± 0.13
17,G10V,-0.181 ± 0.045
18,G50V,-0.064 ± 0.1
19,G50T,0.166 ± 0.17
20,G50Y,-0.202 ± 0.17
21,G50M,-0.284 ± 0.39
22,G50H,-0.555 ± 0.31
23,G50C,-0.329 ± 0.12
24,G50S,-0.153 ± 0.093

row,Variant,abundance fitness
1,I35G,-0.301 ± 0.057
2,I35N,-0.042 ± 0.091
3,I35M,-0.239 ± 0.078
4,I35D,-0.128 ± 0.068
5,I35T,0.04 ± 0.059
6,I35A,0.008 ± 0.061
7,I35K,0.065 ± 0.074
8,I35L,-0.035 ± 0.047
9,D23I,-0.725 ± 0.067
10,D23R,-0.645 ± 0.059
11,D23H,-0.593 ± 0.062
12,D23S,-0.036 ± 0.06
13,K34T,-0.218 ± 0.078
14,K34N,-0.053 ± 0.095
15,K34S,-0.197 ± 0.046
16,K34G,-0.022 ± 0.044
17,K34D,-0.063 ± 0.082
18,K34E,-0.251 ± 0.059
19,K34L,-0.284 ± 0.053
20,K34V,-0.58 ± 0.049
21,T49S,-0.077 ± 0.069
22,T49L,-0.104 ± 0.052
23,T49P,-0.135 ± 0.071
24,T49W,-0.213 ± 0.063

row,Variant,abundance fitness
1,K1A,-0.774 ± 0.27
2,K1I,-0.062 ± 0.2
3,K1V,-0.885 ± 0.25
4,P51T,0.009 ± 0.18
5,L22T,0.141 ± 0.084
6,L22W,-0.167 ± 0.069
7,L22D,0.048 ± 0.071
8,L22Q,0.152 ± 0.064
9,L22P,0.246 ± 0.052
10,L22I,-0.107 ± 0.087
11,L22C,-0.219 ± 0.088
12,N7L,-0.212 ± 0.048
13,N7S,-0.042 ± 0.048
14,N7M,-0.02 ± 0.066
15,N7I,-0.169 ± 0.088
16,N7G,0.005 ± 0.047
17,H21M,-0.124 ± 0.086
18,H21T,0.087 ± 0.072
19,H21Y,-0.151 ± 0.069
20,H21D,0.101 ± 0.053
21,H21V,-0.296 ± 0.046
22,L43P,-0.089 ± 0.079
23,L43M,-0.153 ± 0.073
24,L43D,-0.139 ± 0.1

row,Variant,abundance fitness
1,L43V,-0.088 ± 0.071
2,L43I,-0.256 ± 0.084
3,R42M,-0.718 ± 0.06
4,R42Y,-1.05 ± 0.067
5,R42D,-1.15 ± 0.25
6,R42N,-0.687 ± 0.22
7,R42P,-0.474 ± 0.083
8,R42H,-0.67 ± 0.096
9,R42C,-0.847 ± 0.12
10,R42G,-0.656 ± 0.046
11,E17N,-0.61 ± 0.056
12,E17T,-0.628 ± 0.069
13,E17F,-0.753 ± 0.14
14,E17P,-0.877 ± 0.19
15,E17S,-0.246 ± 0.055
16,P46V,-0.014 ± 0.064
17,P46S,-0.048 ± 0.054
18,P46D,-0.028 ± 0.086
19,P46Q,-0.27 ± 0.11
20,P46I,-0.171 ± 0.07
21,P46F,-0.228 ± 0.075
22,S33M,-0.279 ± 0.11
23,S33A,-0.061 ± 0.047
24,D30H,0.125 ± 0.092

row,Variant,abundance fitness
1,D30F,-0.546 ± 0.17
2,D30Q,-0.424 ± 0.075
3,D30T,-0.716 ± 0.056
4,D30A,-0.539 ± 0.053
5,D30Y,-0.358 ± 0.087
6,D30P,-0.953 ± 0.1
7,D30L,-0.591 ± 0.053
8,T2E,-0.1 ± 0.061
9,T2C,-0.181 ± 0.3
10,T2P,-0.341 ± 0.061
11,T2D,0.142 ± 0.084
12,T2I,0.067 ± 0.06
13,N45S,-0.011 ± 0.044
14,N45E,-0.046 ± 0.053
15,N45C,-0.103 ± 0.084
16,H31G,-0.243 ± 0.043
17,H31I,-0.017 ± 0.075
18,H31L,-0.04 ± 0.044
19,W38F,0.066 ± 0.048
20,W38M,-0.127 ± 0.046
21,W38D,0.002 ± 0.053
22,W38Q,-0.07 ± 0.041
23,W38I,-0.162 ± 0.039
